# Measured values taken from article PMC4552633.
# What was measured:
# [1] = target: clathrin adaptor AP-1, endogenous in 293T cells (detected by its γ-adaptin subunit), O43747;Q9BXS5;P61966; test: cross-linking co-immunoprecipitation (anti-HA IP), Western blot quantification; details: read off a plot
# [2] = target: clathrin adaptor AP-2, endogenous in 293T cells (detected by its α adaptin subunit), O95782;Q96CW1;P53680; test: as above; details: read off a plot
# [3] = 293T tetherin Y6,8A cells, PFA (0.05% w/v) cross-linking, 48 h post transfection, parent: est. 1.8
# [4] = 293T tetherin cells, PFA (0.05% w/v) cross-linking, 48 h post transfection, parent: est. 1.5
# [5] = 293T tetherin Y6,8A cells, PFA (0.05% w/v) cross-linking, 48 h post transfection, parent: est. 2.3
# [6] = 293T tetherin cells, PFA (0.05% w/v) cross-linking, 48 h post transfection, parent: est. 0.9
# [7] = 293T tetherin Y6,8A cells, DMSO, PFA (0.05% w/v) cross-linking, 48 h post transfection, parent: est. 2.5
# [8] = 293T tetherin Y6,8A cells, DMSO, PFA (0.05% w/v) cross-linking, 48 h post transfection, parent: est. 1.7
Substance,"response (% relative to input control) [1, 3]","response (% relative to input control) [1, 4]","response (% relative to input control) [2, 5]","response (% relative to input control) [2, 6]","response (% relative to input control) [1, 7]",response (% relative to input control) ([1]; parent: est. 0),"response (% relative to input control) [2, 8]",response (% relative to input control) ([2]; parent: est. 0)
"HIV-1 NL4.3 Vpu-HA (codon optimized, pCR3.1 Vpu-HA) A14L; W22A",0,0.45,0,0,–,–,–,–
"HIV-1 NL4.3 Vpu-HA (codon optimized, pCR3.1 Vpu-HA) ELV",0,0.95,0,0,0,0,0,0
"HIV-1 NL4.3 Vpu-HA (codon optimized, pCR3.1 Vpu-HA) L41A; I42A; L45A; I46A",0,0.1,0,0,–,–,–,–
"HIV-1 NL4.3 Vpu-HA (codon optimized, pCR3.1 Vpu-HA) N54H; E55G",0,0,0,0,–,–,–,–
"HIV-1 NL4.3 Vpu-HA (codon optimized, pCR3.1 Vpu-HA) S52A; S56A",0,1,0,0,0,0,0,0
